# Assay results as given in the Immune Epitope Database (IEDB).
# What was measured:
# HLA-B*07:02 = test: IEDB peptide-MHC binding, purified MHC/competitive/radioactivity; filed as Kd, often an IC50 or EC50 that approximates it; ≥ and ≤ were set here for values at or beyond the usual limits of such assays
# HLA-B*54:01 = test: as above
# HLA-B*35:01 = test: as above
# HLA-B*51:01 [1] = test: as above
# HLA-B*53:01 = test: as above
# HLA-A*02:06 = test: as above
# HLA-A*02:01 [2] = test: as above
# HLA-A*02:17 = test: as above
# HLA-A*68:01 = test: as above; settings: source organism: Vaccinia virus WR
# HLA-A*02:03 = test: as above
# HLA-A*33:01 = test: as above; settings: source organism: Vaccinia virus WR
# HLA-A*02:02 = test: as above; settings: source organism: Vaccinia virus WR
# HLA-A*68:02 = test: as above; settings: source organism: Vaccinia virus WR
# HLA-A*31:01 = test: as above; settings: source organism: Vaccinia virus WR
# HLA-A*11:01 [3] = test: as above; settings: source organism: Vaccinia virus WR
# HLA-A*03:01 = test: as above; settings: source organism: Vaccinia virus WR
# HLA-A*24:02 = test: IEDB peptide-MHC binding, purified MHC/competitive/fluorescence; ≥ and ≤ were set here for values at or beyond the usual limits of such assays
# HLA-A*11:01 [4] = test: as above
# HLA-B*08:01 = test: IEDB peptide-MHC binding, purified MHC/competitive/radioactivity; filed as Kd, often an IC50 or EC50 that approximates it; ≥ and ≤ were set here for values at or beyond the usual limits of such assays; settings: source organism: Hepacivirus hominis
# HLA-A*02:01 [5] = test: IEDB peptide-MHC binding, purified MHC/competitive/fluorescence; ≥ and ≤ were set here for values at or beyond the usual limits of such assays; settings: source organism: Zaire ebolavirus
# HLA-B*51:01 [6] = test: IEDB peptide-MHC binding, purified MHC/competitive/fluorescence; filed as Kd, often an IC50 or EC50 that approximates it; ≥ and ≤ were set here for values at or beyond the usual limits of such assays; settings: source organism: Mycobacterium tuberculosis CDC1551
# [7] = source organism: SARS coronavirus Tor2
# [8] = source organism: Vaccinia virus WR
# [9] = source organism: Dengue virus 1 Singapore/S275/1990
# [10] = source organism: Zaire ebolavirus
# [11] = source organism: Hepacivirus hominis
# [12] = source organism: Mammarenavirus machupoense
# [13] = source organism: Dengue virus 2 Jamaica/1409/1983
# [14] = source organism: Triticum aestivum
# [15] = source organism: Vaccinia virus
# [16] = source organism: Dengue virus 1 Brazil/97-11/1997
# [17] = source organism: Dengue virus 3 China/80-2/1980
# [18] = source organism: Mammarenavirus lassaense
# [19] = source organism: Mammarenavirus guanaritoense
# [20] = source organism: Mammarenavirus juninense
sequence,measurement,setting,value
HPLADNKFAL,Kd,HLA-B*07:02; [7],0.0971 µM
same,Kd,HLA-B*54:01; [7],7.11 µM
same,Kd,HLA-B*35:01; [7],185 nM
same,Kd,HLA-B*51:01 [1]; [7],0.991 µM
same,Kd,HLA-B*53:01; [7],0.783 µM
LPFTLGIMAI,Kd,HLA-B*07:02; [7],0.743 µM
same,Kd,HLA-B*54:01; [7],0.15 µM
same,Kd,HLA-B*35:01; [7],4980 nM
same,Kd,HLA-B*51:01 [1]; [7],1.21 µM
same,Kd,HLA-B*53:01; [7],0.487 µM
TPVSMTYLY,Kd,HLA-B*07:02; [8],0.17 µM
same,Kd,HLA-B*54:01; [8],0.972 µM
same,Kd,HLA-B*35:01; [8],0.0662 nM
same,Kd,HLA-B*51:01 [1]; [8],≥ 77.5 µM
TPLVQPVGAL,Kd,HLA-B*07:02; [7],0.0869 µM
same,Kd,HLA-B*54:01; [7],0.494 µM
same,Kd,HLA-B*35:01; [7],5270 nM
same,Kd,HLA-B*51:01 [1]; [7],2.34 µM
same,Kd,HLA-B*53:01; [7],1.72 µM
SVLLWMASV,Kd,HLA-A*02:06; [9],0.0157 µM
same,Kd,HLA-A*02:01 [2]; [9],0.00633 µM
same,Kd,HLA-A*02:17; [9],0.0209 µM
YIIRVTTEL,Kd,HLA-A*68:01,≥ 64.6 µM
same,Kd,HLA-A*02:03; [8],0.0176 µM
same,Kd,HLA-A*02:06; [8],0.0181 µM
same,Kd,HLA-A*33:01,≥ 77.7 µM
same,Kd,HLA-A*02:02,0.000856 µM
same,Kd,HLA-B*07:02; [8],0.521 µM
same,Kd,HLA-B*54:01; [8],≥ 78.1 µM
same,Kd,HLA-B*35:01; [8],14600 nM
same,Kd,HLA-A*68:02,0.147 µM
same,Kd,HLA-B*51:01 [1]; [8],14.6 µM
same,Kd,HLA-B*53:01; [8],≥ 36.7 µM
same,Kd,HLA-A*31:01,≥ 77.9 µM
same,Kd,HLA-A*11:01 [3],≥ 77.9 µM
same,Kd,HLA-A*03:01,≥ 78 µM
LDGQQFYWP,IC50,HLA-A*24:02; [10],≥ 210 µM
same,IC50,HLA-A*11:01 [4]; [10],≥ 150 µM
RPALVFDIT,Kd,HLA-B*08:01,2.91 µM
same,Kd,HLA-B*54:01; [11],0.0954 µM
same,Kd,HLA-B*35:01; [11],2080 nM
same,Kd,HLA-B*51:01 [1]; [11],≥ 30.7 µM
same,Kd,HLA-B*53:01; [11],≥ 50.2 µM
TFSILNRKA,IC50,HLA-A*11:01 [4]; [10],66.5 µM
MPALTIACM,Kd,HLA-B*07:02; [12],0.142 µM
same,Kd,HLA-B*54:01; [12],0.836 µM
same,Kd,HLA-B*35:01; [12],5.23 nM
same,Kd,HLA-B*51:01 [1]; [12],3.7 µM
same,Kd,HLA-B*53:01; [12],0.0257 µM
IILEFFLIV,Kd,HLA-A*02:06; [13],0.000384 µM
same,Kd,HLA-A*02:17; [13],0.0898 µM
MVIENGILKK,Kd,HLA-A*68:01,0.0149 µM
same,Kd,HLA-A*02:03; [8],≥ 70.4 µM
same,Kd,HLA-A*02:06; [8],≥ 69.8 µM
same,Kd,HLA-A*33:01,≥ 35.1 µM
same,Kd,HLA-A*02:02,≥ 70 µM
same,Kd,HLA-B*07:02; [8],≥ 69.6 µM
same,Kd,HLA-B*54:01; [8],≥ 69.9 µM
same,Kd,HLA-B*35:01; [8],≥ 30300 nM
same,Kd,HLA-A*68:02,11.2 µM
same,Kd,HLA-B*51:01 [1]; [8],≥ 69.6 µM
same,Kd,HLA-B*53:01; [8],≥ 69.9 µM
same,Kd,HLA-A*02:01 [2]; [8],≥ 69.4 µM
same,Kd,HLA-A*31:01,4.86 µM
same,Kd,HLA-A*11:01 [3],0.0123 µM
same,Kd,HLA-A*03:01,0.0383 µM
LPYPQPQPF,Kd,HLA-B*07:02; [14],0.0693 µM
same,Kd,HLA-B*54:01; [14],0.742 µM
same,Kd,HLA-B*35:01; [14],2.53 nM
same,Kd,HLA-B*51:01 [1]; [14],0.00285 µM
same,Kd,HLA-B*53:01; [14],0.0161 µM
GGKVFAPKQ,IC50,HLA-A*24:02; [15],≥ 2250 µM
same,IC50,HLA-A*11:01 [4]; [15],≥ 244 µM
WMTTEDMLSV,Kd,HLA-A*02:03; [16],0.00893 µM
same,Kd,HLA-A*02:06; [16],0.0106 µM
same,Kd,HLA-A*02:01 [2]; [9],0.0188 µM
same,Kd,HLA-A*02:17; [9],0.593 µM
ILALFLAHYI,Kd,HLA-A*02:03; source organism: Dengue virus 3 Martinique/1243/1999,0.0335 µM
same,Kd,HLA-A*02:17; [17],0.266 µM
YPSMFEKHI,Kd,HLA-B*07:02; [18],16.3 µM
same,Kd,HLA-B*54:01; [18],≥ 20.5 µM
same,Kd,HLA-B*35:01; [18],898 nM
same,Kd,HLA-B*51:01 [1]; [18],0.525 µM
same,Kd,HLA-B*53:01; [18],0.228 µM
NVPGPHRTI,IC50,HLA-A*24:02; [10],2.2 µM
same,IC50,HLA-A*02:01 [5],16 µM
same,IC50,HLA-A*11:01 [4]; [10],54.4 µM
MLLILCVTQV,Kd,HLA-A*02:03; [13],0.0182 µM
same,Kd,HLA-A*02:06; [13],0.00791 µM
same,Kd,HLA-A*02:01 [2]; [13],0.00415 µM
same,Kd,HLA-A*02:17; [13],0.158 µM
SQNSTEGRR,IC50,HLA-A*11:01 [4]; source organism: Sudan ebolavirus,22.4 µM
LPPGSDEHI,Kd,HLA-B*51:01 [6],≥ 20 µM
IPFIAYFVLM,Kd,HLA-A*68:01,1.48 µM
same,Kd,HLA-A*02:03; [8],2.05 µM
same,Kd,HLA-A*02:06; [8],7.87 µM
same,Kd,HLA-A*33:01,1.47 µM
same,Kd,HLA-A*02:02,3.19 µM
same,Kd,HLA-B*07:02; [8],≥ 39.6 µM
same,Kd,HLA-B*54:01; [8],2 µM
same,Kd,HLA-B*35:01; [8],1210 nM
same,Kd,HLA-A*68:02,9.33 µM
same,Kd,HLA-B*51:01 [1]; [8],2.23 µM
same,Kd,HLA-B*53:01; [8],1.3 µM
same,Kd,HLA-A*02:01 [2]; [8],1.33 µM
same,Kd,HLA-A*31:01,0.652 µM
same,Kd,HLA-A*11:01 [3],4.52 µM
same,Kd,HLA-A*03:01,0.654 µM
VILFIMFMLI,Kd,HLA-A*68:01,0.113 µM
same,Kd,HLA-A*02:03; [8],0.769 µM
same,Kd,HLA-A*02:06; [8],1.41 µM
same,Kd,HLA-A*33:01,0.514 µM
same,Kd,HLA-A*02:02,0.722 µM
same,Kd,HLA-B*07:02; [8],5.48 µM
same,Kd,HLA-B*54:01; [8],0.804 µM
same,Kd,HLA-A*68:02,1.08 µM
same,Kd,HLA-B*51:01 [1]; [8],7.57 µM
same,Kd,HLA-B*53:01; [8],1.7 µM
same,Kd,HLA-A*31:01,0.128 µM
same,Kd,HLA-A*11:01 [3],0.353 µM
same,Kd,HLA-A*03:01,0.081 µM
QLWATLLSL,Kd,HLA-A*02:01 [2]; [9],0.00116 µM
same,Kd,HLA-A*02:17; [9],0.0506 µM
VTLNASQYA,IC50,HLA-A*11:01 [4]; source organism: Vaccinia virus Copenhagen,≥ 227 µM
APIKEFKAKI,Kd,HLA-B*07:02; [8],0.0202 µM
same,Kd,HLA-B*54:01; [8],11.2 µM
same,Kd,HLA-B*35:01; [8],≥ 41400 nM
same,Kd,HLA-B*51:01 [1]; [8],≥ 22.4 µM
same,Kd,HLA-B*53:01; [8],12 µM
LPIFSEFVL,Kd,HLA-B*07:02; [19],0.217 µM
same,Kd,HLA-B*54:01; [19],0.491 µM
same,Kd,HLA-B*35:01; [19],8.59 nM
same,Kd,HLA-B*51:01 [1]; [19],18.5 µM
same,Kd,HLA-B*53:01; [19],0.0558 µM
LPHLCLDYKV,Kd,HLA-B*07:02; [8],8.45 µM
same,Kd,HLA-B*54:01; [8],0.00499 µM
same,Kd,HLA-B*35:01; [8],10100 nM
same,Kd,HLA-B*51:01 [1]; [8],0.36 µM
same,Kd,HLA-B*53:01; [8],1.08 µM
VPSVNEYHML,Kd,HLA-B*07:02; [8],1.21 µM
same,Kd,HLA-B*54:01; [8],≥ 69.9 µM
same,Kd,HLA-B*35:01; [8],4410 nM
same,Kd,HLA-B*51:01 [1]; [8],≥ 52.2 µM
same,Kd,HLA-B*53:01; [8],2.17 µM
ILWENNIKL,Kd,HLA-A*02:17; [17],0.0911 µM
HPDMDSMMI,Kd,HLA-B*07:02; [20],0.806 µM
same,Kd,HLA-B*54:01; [20],≥ 68.4 µM
same,Kd,HLA-B*35:01; [20],1490 nM
same,Kd,HLA-B*51:01 [1]; [20],3.31 µM
same,Kd,HLA-B*53:01; [20],0.167 µM
